From paper PMC7290415, “Functional Consequences of the Variable Stoichiometry of the Kv1.3-KCNE4 Complex” (Cells, 2020)
Each block holds one binder with its values, some of them ahead of it.

What was measured:
[1] = target: the molecule itself; test: counting of GFP bleaching steps of single spots (TIRF microscopy); live HEK-293 cells with Kv1.3-loopBAD-GFP and BirA; biotinylated channels at the cell surface immobilised with NeutrAvidin (50 nM) on biotin-collagen-coated glass; step distribution fitted to a binomial with p = 0.67
KCNE4-loopBAD-GFP = target: T1, KCNE4-loopBAD-GFP (UniProt Q9WTW3 1-170, biotin on the loopBAD tag (BirA biotin ligase co-expressed)); test: counting of GFP bleaching steps of single spots (TIRF microscopy); live HEK-293 cells with KCNE4-loopBAD-GFP, Kv1.3-Apple and BirA; biotinylated KCNE4 at the cell surface immobilised with NeutrAvidin (50 nM); motionless GFP spots colocalising with Kv1.3-Apple; conditions: partners not purified
T1 construct: KCNE4; also called KCNE4-pEGFP with loopBAD; KCNE4-GFP; source: HEK-293, electroporated together with BirA, on the cell surface; not shown: loopBAD (biotin acceptor domain), N-terminal, kept
T1 sequence (looked up): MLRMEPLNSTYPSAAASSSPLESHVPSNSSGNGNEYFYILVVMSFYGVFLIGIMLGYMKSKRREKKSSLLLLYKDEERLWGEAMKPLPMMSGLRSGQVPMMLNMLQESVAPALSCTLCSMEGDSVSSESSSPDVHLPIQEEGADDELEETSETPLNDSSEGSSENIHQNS

B1: Kv1.3-loopBAD-GFP (natural protein, UniProt P15384 1-525, looked up)
chain: MTVVPGDHLLEPEAAGGGGGDPPQGGCVSGGGCDRYEPLPPALPAAGEQDCCGERVVINISGLRFETQLKTLCQFPETLLGDPKRRMRYFDPLRNEYFFDRNRPSFDAILYYYQSGGRIRRPVNVPIDIFSEEIRFYQLGEEAMEKFREDEGFLREEERPLPRRDFQRQVWLLFEYPESSGPARGIAIVSVLVILISIVIFCLETLPEFRDEKDYPASPSQDVFEAANNSTSGASSGASSFSDPFFVVETLCIIWFSFELLVRFFACPSKATFSRNIMNLIDIVAIIPYFITLGTELAERQGNGQQAMSLAILRVIRLVRVFRIFKLSRHSKGLQILGQTLKASMRELGLLIFFLFIGVILFSSAVYFAEADDPSSGFNSIPDAFWWAVVTMTTVGYGDMHPVTIGGKIVGSLCAIAGVLTIALPVPVIVSNFNYFYHRETEGEEQAQYMHVGSCQHLSSSAEELRKARSNSTLSKSEYMVIEEGGMNHSAFPQTPFKTGNSTATCTTNNNPNSCVNIKKIFTDV
modifications: biotin on the loopBAD tag (BirA biotin ligase co-expressed)
notes: voltage-gated potassium channel Kv1.3; also called GFP-Kv1.3-loopBAD; pEGFP-Kv1.3 with loopBAD; source: HEK-293, electroporated together with BirA, on the cell surface; not shown: loopBAD (biotin acceptor domain), internal (first extracellular loop), kept
- stoichiometry N [1]: 4

- stoichiometry N (KCNE4-loopBAD-GFP): ≤ 4 KCNE4 per Kv1.3 channel
B2: Kv1.3-Apple (natural protein, UniProt P15384 1-525, looked up)
chain: B1 chain
notes: voltage-gated potassium channel Kv1.3; also called Kv1.3 tagged with mApple; source: HEK-293, electroporated, on the cell surface
